Molecular target: BOM1093 of Borrelia miyamotoi strain MYK3, 6xHis-tagged on the C terminus, expressed in B. garinii HT59G (Borrelia miyamotoi strain MYK3)
Assay: ELISA; Maxisorp wells coated with 0.5 µg/well sonicated B. garinii HT59G/pBOM1093 in TBS; recombinant human Vn 6.25-400 nM, 2 h at room temperature; detected with mouse anti-human Vn IgG; values of the mock strain (pBSV2) subtracted; KD fitted in Prism

**Q.** For “recombinant human vitronectin (from UniProt P04004 20-478) (natural protein)”, which Kd is on record?
**A.** 10.8 nM
